Assay results taken from US11440969B2, “Use of human epididymis protein 4 (HE4) for assessing responsiveness of MUC 16-positive cancer treatment” (Genentech, Inc., priority 2016, dated 2022).

System: platinum-resistant ovarian cancer
Assay: Clinical activity of anti-MUC16-TDC (RECIST v1.1) in ovarian cancer patients
Assay type: in vivo, human
Conditions: 1.0-5.6 mg/kg q3w
Protocol: This Phase I, multicenter, open-label, dose escalation study was designed to identify the recommended Phase II dose (RP2D) of DMUC4064A (anti-MUC16-TDC) in platinum-resistant ovarian cancer patients and unresectable pancreatic cancer patients. The study employed a traditional 3+3 dose escalation design to determine the maximum tolerated dose (MTD), and the patients were administered intravenous (IV) DMUC4064A (Genentech Inc.) 1.0-5.6 mg/kg every three weeks (q3w) to evaluate the safety, tolerability, and pharmacokinetics of DMUC4064A.
Ovarian cancer patients had advanced epithelial ovarian, primary peritoneal, or fallopian tube cancer that progressed or relapsed within 6 months after the most recent treatment with a platinum-containing chemotherapy regimen. […] Progression or relapse from prior platinum-based chemotherapy was documented by RECIST v1.1. Patients were allowed ≤2 prior chemotherapy regimens.
Treatment (using anti-MUC16-TDC) response rate was estimated for patients with disease that was measurable by RECIST guidelines. Patients were identified as having a partial response (PR), stable disease (SD), or progressive disease (PD) as measured by RECIST v1.1. Objective response is defined as a complete or partial response, as determined by investigator assessment and confirmed by repeat assessments ≥4 weeks after initial documentation. Duration of objective response was defined as the time from the initial complete or partial response to the time of disease progression or death.

[1] = end point of the clinical trial

B1: DMUC4064A (conjugate, chains of the INN, looked up)
VH: EVQLVESGGGLVQPGGSLRLSCAASGYSITNDYAWNWVRQAPGKGLEWVGYISYSGYTTYNPSLKSRFTISRDTSKNTLYLQMNSLRAEDTAVYYCARWTSGLDYWGQGTLVTVSS
VL: DIQMTQSPSSLSASVGDRVTITCKASDLIHNWLAWYQQKPGKAPKLLIYGATSLETGVPSRFSGSGSGTDFTLTISSLQPEDFATYYCQQYWTTPFTFGQGTKVEIK
modifications: vedotin payload (MMAE)
additional patients with a partial response at some point during the study: six
patients with progressive disease (conclusion of the study): ten
patients who maintained stable disease [1]: 23
patients with a partial response to treatment [1]: two
